Assay results taken from paper PMC7952133.

Legend:
[1] = target: HIV-1 unmyristoylated matrix Q63R mutant protein (HIV-1 (pNL4-3 strain)); test: crystal structure; hanging-drop vapor diffusion, 40% PEG 400, 0.1 M sodium acetate (pH 4), 50 mM lithium sulfate; protein at 20 mg/ml; two crystal forms; molecular replacement with PDB 1HIW
[2] = target: HIV-1 myristoylated matrix (MA) protein, wild type (HIV-1 (pNL4-3 strain)); test: AUC; sedimentation equilibrium, 22,000, 26,000 and 30,000 rpm, 20 °C, pH 5.5, 50 mM sodium phosphates, 100 mM NaCl, 2 mM TCEP; global fit to a monomer–trimer equilibrium model (monomers to trimer), monomer mass 15.6 kDa and n = 3 fixed
[3] = target: HIV-1 myristoylated matrix (MA) Q63R mutant protein (HIV-1 (pNL4-3 strain)); test: as above
[4] = target: HIV-1 myristoylated matrix (MA) T70R mutant protein (HIV-1 (pNL4-3 strain)); test: as above
[5] = target: HIV-1 myristoylated matrix (MA) A45E mutant protein (HIV-1 (pNL4-3 strain)); test: as above
[6] = target: HIV-1 myristoylated matrix (MA) L75G mutant protein (HIV-1 (pNL4-3 strain)); test: as above

With “HIV-1 unmyristoylated matrix Q63R mutant protein (natural protein)” the stoichiometry N [1] was 3.

“HIV-1 myristoylated matrix (MA) protein, wild type (natural protein)” was tested, and the Ka [2] was 2e+07 M⁻¹ and the stoichiometry N [2] was 3.

Work on “HIV-1 myristoylated matrix (MA) Q63R mutant protein (natural protein)” yielded a Ka [3] of 2e+07 M⁻¹ and a stoichiometry N [3] of 3.

“HIV-1 myristoylated matrix (MA) T70R mutant protein (natural protein)” showed a Ka [4] of 2.8e+07 M⁻¹ and a stoichiometry N [4] of 3.

With “HIV-1 myristoylated matrix (MA) A45E mutant protein (natural protein)” the Ka [5] was 2.5e+07 M⁻¹ and the stoichiometry N [5] was 3.

Work on “HIV-1 myristoylated matrix (MA) L75G mutant protein (natural protein)” yielded a Ka [6] of 1e+07 M⁻¹ and a stoichiometry N [6] of 3.
